Measured values from patent publication US5559213A, “Polyethylene-protein conjugates” (Hoffmann-La Roche Inc., priority 1995, dated 1996).

Columns and labels:
[1] = system: rIL-1alpha induction of interleukin-6; test: Inhibition of rIL-1alpha induction of interleukin-6 in mice (pharmacodynamics); type: in vivo
Experimental: The pharmacodynamics of IL-1ra protein was evaluated in vivo by the ability of the IL-1ra to inhibit rIL-1alpha induction of interleukin-6. Serum from mice treated with rIL-1alpha contain high levels of IL-6, [McIntosh et al., Immunol. 143: 162, (1989)]. The administration of unmodified IL-1ra together with IL-1alpha (0 hr time point) inhibits the induction of IL-6. This test system was used to compare the pharmacodynamic properties of unmodified and PEG IL-1ra. […] Three hours later, serum samples were collected. IL-6 levels (units) were determined using a modification of an IL-6 assay that has been previously described [Van Snick et al., Proc. Natl. Acad. Sci. USA 83:9679, (1986)]. In the IL.-6 assay, B9 hybridoma cells were treated with two fold serial dilutions of the test sera in 96-well microtiter plates. Following a 3 day incubation at 37° C. in a humidified atmosphere comprised of 5% CO2 and 95% air, the wells were pulsed with 0.5 uCi of tritiated thymidine and incubated for an additional 18 hr. The cells were then harvested onto glass fiber filters and the level of tritiated thymidine incorporation was determined by scintillation counting. IL-6 activity is expressed as U/ml. IL-6 units are defined as the inverse of the serum dilution which produces half-maximal tritiated thymidine incorporation compared to a reference standard.

[2] = Pharmacokinetic profile: serum IL-1ra levels in mice after subcutaneous administration; type: in vivo; conditions: for Serum Concentration of IL-1ra: Table D2 (pegylated as in Example 6a), 100 ug s.c.; for Serum Level of IL-1ra: Table D4 (reagent of Example 11a); for Serum IL-1ra: Table D5 (reagent of Example 18a)
Experimental: To determine the pharmacokinetic profile of PEG-IL-1ra species, C57BF/6 mice were administered 100 ug of […] or pegylated IL-1ra species subcutaneously. Serum samples were collected after 1, 2, 3, 4 and 6 hours from mice that received unmodified IL-1ra and after 2, 4, 8, 10, and 24 hours from mice that received PEG-IL-1ra. The serum levels were determined in the EL4 membrane binding assay described in Example 6.

[3] = target: T1, IL-1 receptor on EL-4 membranes (Mus musculus, UniProt P13504); test: IL-1 radioreceptor competition binding assay
T1 construct: incubated at varying concentrations with EL-4 membranes; endogenous in cells; host or cells: EL-4 cell membranes
T1 sequence (P13504 20-576): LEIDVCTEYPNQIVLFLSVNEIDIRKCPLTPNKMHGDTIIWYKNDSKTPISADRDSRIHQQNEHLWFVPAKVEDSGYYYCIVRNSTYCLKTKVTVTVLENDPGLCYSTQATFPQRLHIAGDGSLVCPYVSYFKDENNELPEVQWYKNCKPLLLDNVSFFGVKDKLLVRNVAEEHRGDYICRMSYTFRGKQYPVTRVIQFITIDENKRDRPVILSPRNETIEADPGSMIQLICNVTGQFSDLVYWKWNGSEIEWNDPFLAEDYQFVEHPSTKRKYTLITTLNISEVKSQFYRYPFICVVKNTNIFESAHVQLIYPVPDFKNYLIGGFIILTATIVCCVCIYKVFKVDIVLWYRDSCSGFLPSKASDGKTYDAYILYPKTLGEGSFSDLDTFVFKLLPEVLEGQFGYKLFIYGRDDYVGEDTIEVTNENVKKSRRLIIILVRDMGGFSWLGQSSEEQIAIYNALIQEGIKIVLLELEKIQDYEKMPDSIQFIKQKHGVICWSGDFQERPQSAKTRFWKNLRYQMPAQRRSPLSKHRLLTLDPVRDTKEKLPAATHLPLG
Experimental: Pegylated IL-1ra was purified from the reaction mixture using hydrophobic exchange chromatography (Bio-Rad; HRLC MP7 HlC). A linear gradient with decreasing salt concentrations from 0.43 to 0.0M (NH4)2 SO4 in 50 mM sodium phosphate pH 7.0 in 20 minutes was used to separate pegylated IL-1ra and unmodified IL-1ra. Aliquots of fractions were evaluated by SDS-PAGE and pooled fractions were assayed in an IL-1 radioreceptor competition binding assay. [Kilian et al. J. Immunol., 136, 4509, (1986)]. Briefly, IL-1ra and PEG-IL-1ra were incubated at varying concentrations with EL-4 membranes for 30 min at 37° C. The [^125 I]IL-1 alpha was then added and the incubation continued for 30 min. The assay was terminated by vacuum filtration and the collection of cell bound [^125 I]IL-1 on filter plates. The concentration of IL-1ra or PEG-IL-1ra that inhibits binding of [^125l]IL- 1 by 50% (IC50) was determined graphically. […] The pegylated IL-1ra mixture retained its ability-to bind to the IL-1 receptor on EL-4 membranes within a factor 2 to 3 fold relative to the unmodified II1-1ra.

IL-1ra: Interleukin-1 receptor antagonist, unmodified; apparent molecular weight 19 kD by SDS-PAGE
inhibition of the IL-1 response ([1]; Example 12, within 6 hours of administration): less than 50%
IL-6 ([1]; Table D1 (reagent of Example 5), 200 ug s.c. 0 hr prior to 0.2 ug rIL-1 alpha, IL-1 alone 28852 U/ml): 772 Units/ml
IL-6 ([1]; Table D1 (reagent of Example 5), 200 ug s.c. 6 hr prior to 0.2 ug rIL-1 alpha, IL-1 alone 28852 U/ml): 8361 Units/ml
IL-6 ([1]; Table D1 (reagent of Example 5), 200 ug s.c. 24 hr prior to 0.2 ug rIL-1 alpha, IL-1 alone 28852 U/ml): 22525 Units/ml
IL-6 ([1]; Table D1 (reagent of Example 5), 200 ug s.c. 48 hr prior to 0.2 ug rIL-1 alpha, IL-1 alone 28852 U/ml): 18485 Units/ml
IL-6 ([1]; Table D1 (reagent of Example 5), 200 ug s.c. 72 hr prior to 0.2 ug rIL-1 alpha, IL-1 alone 28852 U/ml): 13220 Units/ml
IL-6 ([1]; Table D3 (reagent of Example 11), 0 hr prior to IL-1 administration, IL-1 alone 27283 u/ml): 4789 Units/ml
IL-6 ([1]; Table D3 (reagent of Example 11), 6 hr prior to IL-1 administration, IL-1 alone 27283 u/ml): 15324 Units/ml
IL-6 ([1]; Table D3 (reagent of Example 11), 24 hr prior to IL-1 administration, IL-1 alone 27283 u/ml): 24841 Units/ml
IL-6 ([1]; Table D3 (reagent of Example 11), 48 hr prior to IL-1 administration, IL-1 alone 27283 u/ml): 16348 Units/ml
IL-6 ([1]; Table D3 (reagent of Example 11), 72 hr prior to IL-1 administration, IL-1 alone 27283 u/ml): 12067 Units/ml
IL-6 ([1]; Table D6 (reagent of Example 18), 0 hr prior to 0.05 ug rIL-1 alpha, IL-1 alone 9203 units/ml): 521 Units/ml
IL-6 ([1]; Table D6 (reagent of Example 18), 6 hr prior to 0.05 ug rIL-1 alpha, IL-1 alone 9203 units/ml): 2334 Units/ml
IL-6 ([1]; Table D6 (reagent of Example 18), 24 hr prior to 0.05 ug rIL-1 alpha, IL-1 alone 9203 units/ml): 13486 Units/ml
IL-6 ([1]; Table D6 (reagent of Example 18), 48 hr prior to 0.05 ug rIL-1 alpha, IL-1 alone 9203 units/ml): 16577 Units/ml
IL-6 ([1]; Table D6 (reagent of Example 18), 72 hr prior to 0.05 ug rIL-1 alpha, IL-1 alone 9203 units/ml): 12800 Units/ml
Serum Concentration of IL-1ra ([2]; 1 hr after administration): 400
Serum Concentration of IL-1ra ([2]; 2 hr after administration): 130
Serum Concentration of IL-1ra ([2]; 4 hr after administration): 15
Serum Concentration of IL-1ra ([2]; 6 hr after administration): 16
Serum Concentration of IL-1ra ([2]; time not given, line between 2 and 4 hr): 40
Serum Level of IL-1ra ([2]; 1 hr after administration): 220 ng/mL
Serum Level of IL-1ra ([2]; 2 hr after administration): 33 ng/mL
Serum Level of IL-1ra ([2]; 3 hr after administration): 13 ng/mL
Serum Level of IL-1ra ([2]; 4 hr after administration): 5.3 ng/mL
Serum Level of IL-1ra ([2]; 6 hr after administration): 1.5 ng/mL
Serum IL-1ra ([2]; 1 hr after administration): 580 ng/mL
Serum IL-1ra ([2]; 2 hr after administration): 75 ng/mL
Serum IL-1ra ([2]; 3 hr after administration): 30 ng/mL
Serum IL-1ra ([2]; 4 hr after administration): 30 ng/mL
Serum IL-1ra ([2]; 6 hr after administration): 8 ng/mL
IC50 ([3]; Example 6, Table VI: IL-1ra conjugated with reagent of Example 5, label = apparent molecular weight): 2.0 ng/mL
IC50 ([3]; Example 6A, Table VII: IL-1ra conjugated with reagent of Example 5a, label = apparent molecular weight (kD)): 1.6 ng/mL
IC50 ([3]; Example 12, Table XII: IL-1ra pegylated with reagent of Example 11, label = apparent molecular weight (kD)): 2.0 ng/mL
IC50 ([3]; Example 12A, Table XIII: IL-1ra pegylated with reagent of Example 11a, label = apparent molecular weight (kD)): 0.8 ng/mL
IC50 ([3]; Example 19, Table XIV: IL-1ra pegylated with reagent of Example 18, label = apparent molecular weight (kD)): 2.0 ng/mL
IC50 ([3]; Example 19A, Table XV: IL-1ra pegylated with reagent of Example 18a, label = apparent molecular weight (kD)): 1.5 ng/mL
IC50 ([3]; Example 26, Table XVIII: IL-1ra pegylated with reagent of Example 23, label = apparent molecular weight (kD)): 2.0 ng/mL
IC50 ([3]; Example 29, Table XX: IL-1ra pegylated with reagent of Example 28, label = molecular weight (kD)): 1.4 ng/mL
IC50 ([3]; Example 32, Table XXII: rIL-1ra conjugated with reagent of Example 31, label = apparent molecular weight (kD)): 1.5 ng/mL
IC50 ([3]; Example 38, Table XXV: rIL-1ra conjugated with the reagent described in Example 35 (so in the source), label = apparent molecular weight (kD)): 1.0 ng/mL
IC50 ([3]; IC50 of IL-1ra in this assay (general statement)): 1 to 2.0 ng/mL
